The data set is described as follows: yeast display, Sf9 membrane polyspecificity reagent, FACS + sequencing; frameworks hold sequencing errors. A digest of the protocol:
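Polyreactivity labels are assigned by the sorting gate from which each nanobody was recovered. The gates were low and high (top ~1%), set on anti-HA fluorescence for expression and streptavidin fluorescence for reagent binding. Before sorting, galactose-induced (36–48 hours) yeast display cells were stained for 1 hour at 4 °C with 10% biotinylated, detergent-solubilized Sf9 membrane reagent.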
Take “QVQLEESGGGLVQAGGSLRLSCAASGILRDNAMGWYRQAPGKERELVATINGDGSTYADSVKGRFTISRDNAKNTVYLQMNSLKPEDTAVYYCAAPFTTTFDYWGQGTQVTVSS”: the “polyreactivity (PSR sort gate)” value is “low polyreactivity”.
Take “QVQLEESGGGLVQAGGSLRLSCAASGITFDFNAKGWYRQAPGTERELVAAIRNRGGSTYYADSVKGRFTISRDNAKNTVYLQMHSLKPVDTAVYYCNVDLWPFVYSWWSYDYWGQGTQVTVSS”: the “polyreactivity (PSR sort gate)” value is “high polyreactivity”.
Turning to “QVQLEESGGGLVQAGGSLRLSCAASGITFSRYAMGWYRQATGKERELVARISSSGGSTNYADSVKGRFTISRDNAKNTVYLQMNSLKPEDSAVYYCAVATRGKVARRVTFDYWGQGTQVTVSS”, the “polyreactivity (PSR sort gate)” value is “high polyreactivity”.
Then “QVQLEESGGGLVQAGGSLRLSCAASGLIFGKYAMGWYRTAPGKERELVAAITSSGGGTYYADSVKGRFTISRDNAKNTVYLQMNSLKPEDTAVYYCSTGPDPKYDYWGQGTQVTVSS”, with “high polyreactivity”.
With “QVQLEESGGGLVQAGGSLRLSCAASGLNIAVYTMGWYRQAPGKERELVAAITRRSTRTYYADSVKGRFTISRDNALISVFLQMNSLKPEDTAVYYCAADRVSSGAAFEFWGQGTQVTVSS”, the “polyreactivity (PSR sort gate)” value is recorded as “low polyreactivity”.
Then “QVQLEESGGGLVQAGGSLRLSCAASGLTFPWYAMGWYRPATGKEREFVAAITGGGSTYYADSVKGRFTISRDNAKNTVYLQMNSLKPEDTAVYYCNTDVPYGLDVSDTIDYYYWGQGTLVTVSS”, with “low polyreactivity”.
In the case of “QVQLEESGGGLVQAGGSLRLSCAASGNIFESYGMGWYRQAPGKERELVATINTSSGSTYYADSVKGRFTISRDNAKNTVYLQMNSLKPEDTAVYYCAAEWYPYPWGYGYWGQGTQVTVSS” it was “low polyreactivity”; in that of “QVQLEESGGGLVQAGGSLRLSCAASGPIFPGYVMGWYRQAPGKERELVAAISVRGGSTYYADSVKGRFTISRDNAKNTVYLQMNSLKPEDTAVYYCAADSYYYQGYRRYNYDYWGQGTQVTVSS”, “high polyreactivity”.
Regarding “QVQLEESGGGLVQAGGSLRLSCAASGRIFAVNAMGGYRQAPGKERELVAAINGGGSTNYADSVKGRFTLSRDNAKNTVYLQMNSLKPADTAVYYCAADVGWRSQTRGYYWGQGTQVTVSS”, the “polyreactivity (PSR sort gate)” value is “high polyreactivity”.
Then “QVQLEESGGGLVQAGGSLRLSCAASGRIFDDNAMGWYRPAPGKERELVAAISSSGGSTYYADSVKGRFTISRDNAKNTVYLQMNSLKPEDTAVYYCNAGRYIRAFWYAHGYDYWGQGTQVTVSS”, with “high polyreactivity”.
For “QVQLEESGGGLVQAGGSLRLSCAASGRIFIKNAMGWYRQAPGKVRELVAAISARGGSTYYADSVKGRFTISRDIAKNTVYLEMNSLKPEDTAVYDCAVDVYEPRYRRPLHHDYWGQGTQVTVSS”, the “polyreactivity (PSR sort gate)” value was “low polyreactivity”.
As to “QVQLEESGGGLVQAGGSLRLSCAASGRIFLTYAMGWYRQAPGKERELVAAIRSRSGTTYYADSVKGRFTISRDNAKNTVYLQMNSLKPEDTAVYYCAAGGKSRSYYWGQGTQVTVSS”, the “polyreactivity (PSR sort gate)” value is “high polyreactivity”.
In the case of “QVQLEESGGGLVQAGGSLRLSCAASGRIFLYNAMGWYRQAPGKERELVAAISRSGGSTYYADSVKGRFTISRDNAKNTVYLQMNSLKPEDTAVYYCAVGSPYGCRAPWVRGGDYWGQGTQVTVSS” it was “high polyreactivity”; in that of “QVQLEESGGGLVQAGGSLRLSCAASGRIFQYYDMGWYRPATGKERELVAGIRTNGSSTYYADSVKGRFTISRDNAKNTVYLQMNSLKPEDSAVYYCAARHYRYLRQYDYWGQGTQVTVSS”, “low polyreactivity”; in that of “QVQLEESGGGLVQAGGSLRLSCAASGRIFSRNARGWYRPSPGKERELVAASSSGGGSTYYADSVKGRFTISRDNAKNTVYLLMNSLKPEDTAVYYCAARTRITYDWGQGTQVTVSS”, “low polyreactivity”.
Then “QVQLEESGGGLVQAGGSLRLSCAASGRIFTYYGMGWYRQAPGKERELVAAITRSGGSTRYADSVKGRFTISRDNAKNTVYLQMNSLKPEDTAVYFCAKTHYGVQRLDSCGQGTQVTVSS”, with “low polyreactivity”; and “QVQLEESGGGLVQAGGSLRLSCAASGRIFVIYAMGWYRQAPGKERELVAVITSGGRTYYADSVNGRFTISRDNAKNTVYLQMNRLKPEDTAVYYCAARTGRGFEYWGQGTQVTVSS”, with “high polyreactivity”; and “QVQLEESGGGLVQAGGSLRLSCAASGRIFYEYAMGWYRQAPGKERELVADISSGDDTYYADSVKGRFTISRDNAKNTVYLQMNSLKPEDTAVYYCAADDGGSGFIYDYWGQGTQVTVSS”, with “low polyreactivity”.
Take “QVQLEESGGGLVQAGGSLRLSCAASGRISGFNAMGWYRKAPGKEREFVAAISYRGGYTYADSVKGRFTISRDNAKNTVYLQMNSLKPEDTAVYYCNALWRGHGRYNYWGQGTQVNVSS”: the “polyreactivity (PSR sort gate)” value is given as “low polyreactivity”.
With “QVQLEESGGGLVQAGGSLRLSCAASGRSFWPNAMGWYRQAPGKERELVAAISSGGSTNYADSVKVRFTISRDNAKNTVYLQMNSLKPEDTAVYYCASDGQGDKYDYYGHNFWGQGTQVTVSS”, the “polyreactivity (PSR sort gate)” value is “low polyreactivity”.
Turning to “QVQLEESGGGLVQAGGSLRLSCAASGRSFYGNAMGWYRQAPGKERELVAASSSRSSSTSYADSVKGRFTISRANAKNTVYLLMNSLKPEDTAVYYCATRYGSRTWYGYNYWGQATQVTVSS”, the “polyreactivity (PSR sort gate)” value is “high polyreactivity”.
Then “QVQLEESGGGLVQAGGSLRLSCAASGRTFGRYDMGWYRQAPGKEREFVAAISTRGSRTYYADSVKGRFTISRDNAKNTVYLQMNSLKAEDTAVYYCAAEYLPRPYSWIYYYWGQGTQVTVSS”, with “high polyreactivity”; and “QVQLEESGGGLVQAGGSLRLSCAASGRTFRYYAMGWSRQAPGKERELVAAISWSGSSTYYADSVKGRFTISRDNAKNTVYLQMNSLKAEDTAVYYCNAKGVRGKYFDYSRVSAYDYWGQGTQVTVSS”, with “low polyreactivity”; and “QVQLEESGGGLVQAGGSLRLSCAASGRTFSIYAMGWYRQAPGKERELVASITGRGTRTYYADSVKGRFTISRDNAKNTVYLQMNSLKPEDTAVYYCNARGKVQSSYDDDYWGQGTQVTVSS”, with “high polyreactivity”.
In the case of “QVQLEESGGGLVQAGGSLRLSCAASGRTFVPYVMGWYRQAPGKEMELVATINWSGGSTYYADSVKGRFTISRDNAKNTVYLQMNSLKPEDTADYYCAARYYSDWFYYLFRYDYWGQGTQVTVSS” it was “low polyreactivity”; in that of “QVQLEESGGGLVQAGGSLRLSCAASGRTFYRSAMGWYRPEPGKERELVAAITWSGGSTYYAVSVKGRFTTSRDNAKNTVYLQMNSLKPEDTAVYYCARRLYPYRPTAYDYWGQGTQVTVSS”, “low polyreactivity”.
Turning to “QVQLEESGGGLVQAGGSLRLSCAASGRTFYSSAMGWYRQPPGKERQLVAAITISGGRTFYADSVKGRSTISRDNAKNTVYLQMNSLKPEDTAVYYCATDTYEPFHFEDDYWGQGTQVTVST”, the “polyreactivity (PSR sort gate)” value is “low polyreactivity”.
For “QVQLEESGGGLVQAGGSLRLSCAASGRTIIINTMGWYRQAPGKERELVAAISKNGATTNYADSLKGRFTISRDNAKNTVYLQMNSLKPEDTSVYYCNARYSGYLRLDYWGQGTQVNVSS”, the “polyreactivity (PSR sort gate)” value was “low polyreactivity”.
Turning to “QVQLEESGGGLVQAGGSLRLSCAASGRTSYGYAMGWYRQAPGKERELVAAISSGGRTNYADSVKGRFTISRDNAKNTVYLQMNSLKPEDTAVYYCAKRYRYRPSYDYWGQGTQVTVSS”, the “polyreactivity (PSR sort gate)” value is listed as “high polyreactivity”.
For the sequence “QVQLEESGGGLVQAGGSLRLSCAASGRTTYWYAMGWYRQAPGKERELVADISWSGGSTYYADSVKGRFTISRDNAKNTVYLQMNSLKPEDPAVYYCNAAEQKYSIYYAFDTGPYDYWGQGTQVTVSS”, the “polyreactivity (PSR sort gate)” value is given as “low polyreactivity”.
Then “QVQLEESGGGLVQAGGSLRLSCAASGRTYRYAMGWYRQSPGKERELVAAIRWSGGSTYYADSVKGRFTISRDNAKNTVYLQMNSLKPEDTAVYYCAADSYATRYYYWGQGTQVTVSS”, with “high polyreactivity”; and “QVQLEESGGGLVQAGGSLRLSCAASGSICGVYVMGWYRQAPGKERELVASISRGTTTNYADSVKGRFTISRDNAKNTVYLQMNSLKPEDTAVYYCNADIRGFFFQYDYWGQGTQVTVSS”, with “low polyreactivity”; and “QVQLEESGGGLVQAGGSLRLSCAASGSICWLYAMGWYRQAPGKERELVAAIDSGDSTKYADSVKGRFTISRDNAKNTVYLQMNSLIPEDTAVYYCNASRRYHVRAPYDYWGQGTQVTVSS”, with “low polyreactivity”.
In the case of “QVQLEESGGGLVQAGGSLRLSCAASGSICYYYARGWYRQAPGKERELVASITSGGRTYYADSVKGRFTISRDNAKNTVYLQMNSLKPEDTAVYYCAAQRIWLGDYWGQGTQVTVSS” it was “high polyreactivity”.
As for “QVQLEESGGGLVQAGGSLRLSCAASGSIFARNAMGWYRQAPGNERELVAAISTGGGSTYYADSVKGRFTISRDNAKNSVYLQMKSLKPEDTAVYYCNAGDTQIRFYYWGQGTQVSVSS”, the “polyreactivity (PSR sort gate)” value is recorded as “low polyreactivity”.
In the case of “QVQLEESGGGLVQAGGSLRLSCAASGSIFGAYALGWYRQAPGKERELVAAISSSVDRTYYADSVKGRFTISRDNAKNTVYLQMNSLKPEDTAVYYCAARWGTRDRTKYYYWGQGTQVTVSS” it was “high polyreactivity”.
Then “QVQLEESGGGLVQAGGSLRLSCAASGSIFGFYAMGWYRQAPGKERELVAAISQRGGNTYYADSVKGRFTISRDNAKNTVYLQMNSLKPEDTAVYYCATDKHPYKRHWYYTYDYWGQGTQLTVSS”, with “high polyreactivity”; and “QVQLEESGGGLVQAGGSLRLSCAASGSIFITYAMGWYRQAPGKERELVAAIRDSGDRTYYADSVKGRFTISRDTAKNTVYLQMNSLKPEDTGVYYCNARWQETLKYDYWGQGTLVTVSS”, with “low polyreactivity”; and “QVQLEESGGGLVQAGGSLRLSCAASGSIFKRKAMGWSRQAPGKERELVASISSGGSTHYADSVKGRFTISRDNAKNTVYLQMNSLKREDTAVYYCAATSIRWSVGSFRRDYWGQGTQVTVSS”, with “low polyreactivity”.
Regarding “QVQLEESGGGLVQAGGSLRLSCAASGSIFLANAMGWYRQAPGKERELVATISSGGSTYYADSVKGRFTISRDNAKNTVYLQMNSLKPEDTAVYYCAKRRAYTKKLYYWGQGTQVTVSS”, the “polyreactivity (PSR sort gate)” value is recorded as “high polyreactivity”.
With “QVQLEESGGGLVQAGGSLRLSCAASGSIFPFYAMGRYRQAPGKERELVAAISDRGGSTYYADSVKGRFTISRDNAKNTVYLQMNSLKPEDTAVYYCAKGGGVSQGYTDEYDYWGQGTQVTVSS”, the “polyreactivity (PSR sort gate)” value was “low polyreactivity”.

The values above are taken from the nanobody polyreactivity screen of Harvey et al. (2022).
